B1: Hairpin Ribozyme (parent)
chain: GUCCUCUUUCACGUGCGCGUGAAAGAGAGAAGUGAACCAGAGAAACACACGUUGUGGUAUAUUACCUGGUA

Variants of: B1
Assay: self-cleavage, relative activity (ratio to wild type); higher = more cleavage; co-transcriptional

Point of comparison: A43G A59U, self-cleavage 0.157. Against it:
- G42A A59C — higher, 0.195
- G42A A64G — lower, 0.141
- G42A A71G — higher, 0.296
- G42A C46G — lower, 0.106
- G42A C48A — lower, 0.0835
- G42A C50A — higher, 0.186
- G42A C65A — lower, 0.0752
- G42A C65G — lower, 0.132
- G42A C65U — lower, 0.103
- G42A G51A — higher, 0.25
- G42A G51C — higher, 0.21
- G42A G51U — higher, 0.207
- G42A G54A — lower, 0.153
- G42A G54C — higher, 0.168
- G42A G54U — lower, 0.136
- G42A G56A — higher, 0.191
- G42A G56U — lower, 0.13
- G42A G57U — lower, 0.0918
- G42A G68A — lower, 0.14
- G42A G68C — lower, 0.15
- G42A G69U — higher, 0.219
- G42A U53A — higher, 0.184
- G42A U58A — lower, 0.139
- G42A U58G — higher, 0.17
- G42A U62G — lower, 0.154
- G42A U63A — higher, 0.174
- G42A U70A — lower, 0.0455
- G42C — higher, 0.318
- G42C A43C — lower, 0.137
- G42C A47C — lower, 0.149
- G42C A49G — higher, 0.244
- G42C A49U — lower, 0.155
- G42C A61C — lower, 0.133
- G42C A64C — higher, 0.252
- G42C A64U — lower, 0.0972
- G42C A71C — higher, 0.664
- G42C C46G — lower, 0.103
- G42C C50G — lower, 0.0792
- G42C C50U — lower, 0.0822
- G42C C65G — lower, 0.117
- G42C C65U — higher, 0.215
- G42C G51A — higher, 0.415
- G42C G56U — lower, 0.117
- G42C G57A — lower, 0.1
- G42C G57C — lower, 0.0624
- G42C U52A — higher, 0.256
- G42C U53G — higher, 0.244
- G42C U58G — higher, 0.289
- G42C U60A — lower, 0.133
- G42C U60G — higher, 0.211
- G42C U63A — higher, 0.18
- G42C U67C — lower, 0.137
- G42U — higher, 0.289
- G42U A44G — higher, 0.267
- G42U A47C — higher, 0.22
- G42U A47G — lower, 0.107
- G42U A47U — lower, 0.12
- G42U A49U — higher, 0.24
- G42U A61G — higher, 0.167
- G42U A64C — higher, 0.18
- G42U A64G — lower, 0.154
- G42U A64U — higher, 0.186
- G42U C46G — lower, 0.156
- G42U C48G — lower, 0.134
- G42U C65A — lower, 0.142
- G42U C66G — lower, 0.155
- G42U C66U — higher, 0.232
- G42U G56A — higher, 0.231
- G42U G68U — lower, 0.14
- G42U G69A — lower, 0.142
- G42U G69C — lower, 0.136
- G42U G69U — lower, 0.136
- G42U U52A — higher, 0.379
- G42U U52C — higher, 0.4
- G42U U52G — lower, 0.135
- G42U U53G — higher, 0.198
- G42U U55C — lower, 0.155
- G42U U55G — higher, 0.165
- G42U U63C — higher, 0.213
- G42U U67C — lower, 0.131
- G42U U70G — lower, 0.105
- A43C A44U — higher, 0.171
- A43C A45G — lower, 0.116
- A43C A45U — higher, 0.203
- A43C A47G — lower, 0.0478
- A43C A49C — higher, 0.199
- A43C A49G — lower, 0
- A43C A59G — higher, 0.284
- A43C A61G — lower, 0.147
- A43C A64C — lower, 0.0846
- A43C A64G — higher, 0.185
- A43C A71G — higher, 0.186
- A43C C48A — lower, 0.135
- A43C C50U — lower, 0.13
- A43C C65A — lower, 0.102
- A43C C65G — lower, 0.0609
- A43C C65U — higher, 0.173
- A43C C66A — lower, 0.0928
- A43C G51A — lower, 0.0814
- A43C G51C — higher, 0.193
- A43C G57U — lower, 0.149
- A43C U55A — higher, 0.174
- A43C U55C — higher, 0.201
- A43C U60C — higher, 0.196
- A43C U62G — higher, 0.257
- A43C U63G — lower, 0.117
- A43C U67G — lower, 0.13
- A43C U70A — lower, 0.0723
- A43G A44C — lower, 0.0882
- A43G A45U — lower, 0.0816
- A43G A47U — lower, 0.131
- A43G A59C — lower, 0.153
- A43G A61G — higher, 0.188
- A43G A61U — higher, 0.169
- A43G A64C — higher, 0.191
- A43G C46U — lower, 0.0992
- A43G C50G — lower, 0.133
- A43G C65U — higher, 0.224
- A43G G51U — higher, 0.245
- A43G G54A — lower, 0.066
- A43G G57C — higher, 0.195
- A43G G69U — lower, 0.126
- A43G U55A — lower, 0.0267
- A43G U55C — higher, 0.201
- A43G U62A — lower, 0.125
- A43G U62C — higher, 0.162
- A43G U62G — lower, 0.0971
- A43G U67A — lower, 0.125
- A43U A44C — the same, 0.157
- A43U A44U — lower, 0.141
- A43U A45C — lower, 0.0872
- A43U A45G — lower, 0.119
- A43U A49G — lower, 0.151
- A43U A59C — lower, 0.12
- A43U A61U — higher, 0.174
- A43U A64G — higher, 0.159
- A43U C46U — higher, 0.187
- A43U C48G — higher, 0.166
- A43U C48U — higher, 0.162
- A43U C50A — lower, 0.0923
- A43U C65G — lower, 0.155
- A43U C65U — lower, 0.144
- A43U C66G — lower, 0.138
- A43U G54U — lower, 0.129
- A43U G56A — lower, 0.155
- A43U G57C — higher, 0.17
- A43U G68C — lower, 0.106
- A43U U55C — lower, 0.0805
- A43U U58C — higher, 0.189
- A43U U60G — lower, 0.0802
- A43U U62A — higher, 0.227
- A43U U62C — lower, 0.107
- A43U U62G — lower, 0.0478
- A43U U63G — higher, 0.307
- A43U U67A — lower, 0.0806
- A43U U67G — lower, 0.0666
- A43U U70A — lower, 0.145
- A44C — lower, 0.148
- A44C A45C — lower, 0
- A44C A47C — lower, 0.121
- A44C A49G — higher, 0.22
- A44C A59U — lower, 0.103
- A44C A61C — higher, 0.288
- A44C A71G — higher, 0.211
- A44C C50U — lower, 0.15
- A44C C65G — higher, 0.17
